Source: US20230406885A1, “CYCLIC PEPTIDES FOR TRAPPING INTERLEUKIN-1 BETA” (MERCK SHARP & DOHME LLC, priority 2022, published 2023)
*1 amine or outer side, *2 acyl side, *3 side chain or, on linkers, in order; H or OH if unused. [ ]: non-standard residue; d: D form. 3AzaPhe4AcPip = (S)-3-(6-(4-acetylpiperazin-1-yl)pyridin-3-yl)-2-aminopropanoic acid, CC(=O)N1CCN(c2ccc(C[C@H](N[*:1])C(=O)[*:2])cn2)CC1; Prot4NHCH2CH2Ph = (2S,4R)-4-(phenethylamino)pyrrolidine-2-carboxylic acid, O=C([C@@H]1C[C@@H](N(CCc2ccccc2)[*:3])CN1[*:1])[*:2]; Prot4NHBn = (2S,4R)-4-(benzylamino)pyrrolidine-2-carboxylic acid, O=C([C@@H]1C[C@@H](N(Cc2ccccc2)[*:3])CN1[*:1])[*:2]; Prot4NHEt = (2S,4R)-4-(ethylamino)pyrrolidine-2-carboxylic acid, CCN([C@@H]1C[C@@H](C(=O)[*:2])N([*:1])C1)[*:3]; Pro(trans-4-NH2) = O=C([C@@H]1C[C@@H](N[*:3])CN1[*:1])[*:2]; Trp(βS-Me,4-F) = C[C@@H](c1c[nH]c2cccc(F)c12)[C@H](N)C(=O)O; Bip(4'-COOH) = N[C@@H](Cc1ccc(-c2ccc(C(=O)O)cc2)cc1)C(=O)O; Phe(3-CH2NH2) = O=C([C@H](Cc1cccc(CN[*:3])c1)N[*:1])[*:2]; 1Nal(3S-Me) = C[C@@H](c1cccc2ccccc12)[C@H](N)C(=O)O; mBip = (S)-2-amino-3-(3-phenylphenyl)propanoic acid; Phe(3-allyloxy) = C=CCOc1cccc(C[C@H](N)C(=O)O)c1; Phe(4-COOH) = N[C@@H](Cc1ccc(C(=O)O)cc1)C(=O)O; hTyr = N[C@@H](CCc1ccc(O)cc1)C(=O)O; dDab = NCC[C@@H](N)C(=O)O; dNMeA = CN[C@H](C)C(=O)O; Nva = CCC[C@H](N)C(=O)O; Dap = NC[C@H](N)C(=O)O

B1: SEQ ID NO: 82 (peptide)
peptide: cyclo([Bip(4'-COOH)]W[Phe(4-COOH)]G[Prot4NHBn][1Nal(3S-Me)]D[dNMeA]G[Bip(4'-COOH)]W[Dap][dA][hTyr])
SMILES: C[C@@H]1C(=O)NCC(=O)N[C@@H](Cc2ccc(-c3ccc(C(=O)O)cc3)cc2)C(=O)N[C@@H](Cc2c[nH]c3ccccc23)C(=O)N[C@@H](CN)C(=O)N[C@H](C)C(=O)N[C@@H](CCc2ccc(O)cc2)C(=O)N[C@@H](Cc2ccc(-c3ccc(C(=O)O)cc3)cc2)C(=O)N[C@@H](Cc2c[nH]c3ccccc23)C(=O)N[C@@H](Cc2ccc(C(=O)O)cc2)C(=O)NCC(=O)N2C[C@H](NCc3ccccc3)C[C@H]2C(=O)N[C@@H]([C@@H](C)c2cccc3ccccc23)C(=O)N[C@@H](CC(=O)O)C(=O)N1C
B2: SEQ ID NO: 84 (peptide)
peptide: cyclo([Bip(4'-COOH)]W[Phe(4-COOH)]G[Prot4NHEt][1Nal(3S-Me)]D[dNMeA]G[Bip(4'-COOH)]W[Dap][dA][hTyr])
SMILES: CCN[C@@H]1C[C@H]2C(=O)N[C@@H]([C@@H](C)c3cccc4ccccc34)C(=O)N[C@@H](CC(=O)O)C(=O)N(C)[C@H](C)C(=O)NCC(=O)N[C@@H](Cc3ccc(-c4ccc(C(=O)O)cc4)cc3)C(=O)N[C@@H](Cc3c[nH]c4ccccc34)C(=O)N[C@@H](CN)C(=O)N[C@H](C)C(=O)N[C@@H](CCc3ccc(O)cc3)C(=O)N[C@@H](Cc3ccc(-c4ccc(C(=O)O)cc4)cc3)C(=O)N[C@@H](Cc3c[nH]c4ccccc34)C(=O)N[C@@H](Cc3ccc(C(=O)O)cc3)C(=O)NCC(=O)N2C1
B3: SEQ ID NO: 77 (peptide)
peptide: cyclo([Bip(4'-COOH)]W[Phe(4-COOH)]G[Pro(trans-4-NH2)][Trp(βS-Me,4-F)]D[dNMeA]G[Bip(4'-COOH)]WG[dDab][hTyr])
SMILES: C[C@@H]1C(=O)NCC(=O)N[C@@H](Cc2ccc(-c3ccc(C(=O)O)cc3)cc2)C(=O)N[C@@H](Cc2c[nH]c3ccccc23)C(=O)NCC(=O)N[C@H](CCN)C(=O)N[C@@H](CCc2ccc(O)cc2)C(=O)N[C@@H](Cc2ccc(-c3ccc(C(=O)O)cc3)cc2)C(=O)N[C@@H](Cc2c[nH]c3ccccc23)C(=O)N[C@@H](Cc2ccc(C(=O)O)cc2)C(=O)NCC(=O)N2C[C@H](N)C[C@H]2C(=O)N[C@@H]([C@@H](C)c2c[nH]c3cccc(F)c23)C(=O)N[C@@H](CC(=O)O)C(=O)N1C
B4: SEQ ID NO: 8 (peptide)
peptide: cyclo([3AzaPhe4AcPip]W[Phe(4-COOH)]G[Pro(trans-4-NH2)][Trp(βS-Me,4-F)]D[dNMeA]G[Bip(4'-COOH)]WG[dDab][hTyr])
SMILES: CC(=O)N1CCN(c2ccc(C[C@@H]3NC(=O)[C@H](CCc4ccc(O)cc4)NC(=O)[C@@H](CCN)NC(=O)CNC(=O)[C@H](Cc4c[nH]c5ccccc45)NC(=O)[C@H](Cc4ccc(-c5ccc(C(=O)O)cc5)cc4)NC(=O)CNC(=O)[C@@H](C)N(C)C(=O)[C@H](CC(=O)O)NC(=O)[C@H]([C@@H](C)c4c[nH]c5cccc(F)c45)NC(=O)[C@@H]4C[C@@H](N)CN4C(=O)CNC(=O)[C@H](Cc4ccc(C(=O)O)cc4)NC(=O)[C@H](Cc4c[nH]c5ccccc45)NC3=O)cn2)CC1
B5: SEQ ID NO: 74 (peptide)
peptide: cyclo([Bip(4'-COOH)]W[Phe(4-COOH)]G[Pro(trans-4-NH2)][Trp(βS-Me,4-F)]D[dNMeA]G[Bip(4'-COOH)][Phe(3-CH2NH2)]S[dA][hTyr])
SMILES: C[C@@H]1C(=O)NCC(=O)N[C@@H](Cc2ccc(-c3ccc(C(=O)O)cc3)cc2)C(=O)N[C@@H](Cc2cccc(CN)c2)C(=O)N[C@@H](CO)C(=O)N[C@H](C)C(=O)N[C@@H](CCc2ccc(O)cc2)C(=O)N[C@@H](Cc2ccc(-c3ccc(C(=O)O)cc3)cc2)C(=O)N[C@@H](Cc2c[nH]c3ccccc23)C(=O)N[C@@H](Cc2ccc(C(=O)O)cc2)C(=O)NCC(=O)N2C[C@H](N)C[C@H]2C(=O)N[C@@H]([C@@H](C)c2c[nH]c3cccc(F)c23)C(=O)N[C@@H](CC(=O)O)C(=O)N1C
B6: SEQ ID NO: 78 (peptide)
peptide: cyclo([Bip(4'-COOH)]W[Phe(4-COOH)]G[Pro(trans-4-NH2)][Trp(βS-Me,4-F)]D[dNMeA]G[Bip(4'-COOH)]WL[dA][hTyr])
SMILES: CC(C)C[C@@H]1NC(=O)[C@H](Cc2c[nH]c3ccccc23)NC(=O)[C@H](Cc2ccc(-c3ccc(C(=O)O)cc3)cc2)NC(=O)CNC(=O)[C@@H](C)N(C)C(=O)[C@H](CC(=O)O)NC(=O)[C@H]([C@@H](C)c2c[nH]c3cccc(F)c23)NC(=O)[C@@H]2C[C@@H](N)CN2C(=O)CNC(=O)[C@H](Cc2ccc(C(=O)O)cc2)NC(=O)[C@H](Cc2c[nH]c3ccccc23)NC(=O)[C@H](Cc2ccc(-c3ccc(C(=O)O)cc3)cc2)NC(=O)[C@H](CCc2ccc(O)cc2)NC(=O)[C@@H](C)NC1=O
B7: SEQ ID NO: 81 (peptide)
peptide: cyclo([Bip(4'-COOH)]W[Phe(4-COOH)]G[Pro(trans-4-NH2)][Trp(βS-Me,4-F)]N[dNMeA]G[Bip(4'-COOH)]KL[dDab][hTyr])
SMILES: CC(C)C[C@@H]1NC(=O)[C@H](CCCCN)NC(=O)[C@H](Cc2ccc(-c3ccc(C(=O)O)cc3)cc2)NC(=O)CNC(=O)[C@@H](C)N(C)C(=O)[C@H](CC(N)=O)NC(=O)[C@H]([C@@H](C)c2c[nH]c3cccc(F)c23)NC(=O)[C@@H]2C[C@@H](N)CN2C(=O)CNC(=O)[C@H](Cc2ccc(C(=O)O)cc2)NC(=O)[C@H](Cc2c[nH]c3ccccc23)NC(=O)[C@H](Cc2ccc(-c3ccc(C(=O)O)cc3)cc2)NC(=O)[C@H](CCc2ccc(O)cc2)NC(=O)[C@@H](CCN)NC1=O
B8: SEQ ID NO: 83 (peptide)
peptide: cyclo([Bip(4'-COOH)]W[Phe(4-COOH)]G[Prot4NHCH2CH2Ph][1Nal(3S-Me)]D[dNMeA]G[Bip(4'-COOH)]W[Dap][dA][hTyr])
SMILES: C[C@@H]1C(=O)NCC(=O)N[C@@H](Cc2ccc(-c3ccc(C(=O)O)cc3)cc2)C(=O)N[C@@H](Cc2c[nH]c3ccccc23)C(=O)N[C@@H](CN)C(=O)N[C@H](C)C(=O)N[C@@H](CCc2ccc(O)cc2)C(=O)N[C@@H](Cc2ccc(-c3ccc(C(=O)O)cc3)cc2)C(=O)N[C@@H](Cc2c[nH]c3ccccc23)C(=O)N[C@@H](Cc2ccc(C(=O)O)cc2)C(=O)NCC(=O)N2C[C@H](NCCc3ccccc3)C[C@H]2C(=O)N[C@@H]([C@@H](C)c2cccc3ccccc23)C(=O)N[C@@H](CC(=O)O)C(=O)N1C
B9: SEQ ID NO: 79 (peptide)
peptide: cyclo([Bip(4'-COOH)]W[Phe(4-COOH)]G[Pro(trans-4-NH2)][Trp(βS-Me,4-F)]D[dNMeA]G[Bip(4'-COOH)]W[Nva][dA]A)
SMILES: CCC[C@@H]1NC(=O)[C@H](Cc2c[nH]c3ccccc23)NC(=O)[C@H](Cc2ccc(-c3ccc(C(=O)O)cc3)cc2)NC(=O)CNC(=O)[C@@H](C)N(C)C(=O)[C@H](CC(=O)O)NC(=O)[C@H]([C@@H](C)c2c[nH]c3cccc(F)c23)NC(=O)[C@@H]2C[C@@H](N)CN2C(=O)CNC(=O)[C@H](Cc2ccc(C(=O)O)cc2)NC(=O)[C@H](Cc2c[nH]c3ccccc23)NC(=O)[C@H](Cc2ccc(-c3ccc(C(=O)O)cc3)cc2)NC(=O)[C@H](C)NC(=O)[C@@H](C)NC1=O
B10: SEQ ID NO: 80 (peptide)
peptide: cyclo([Bip(4'-COOH)]W[Phe(4-COOH)]G[Pro(trans-4-NH2)][Trp(βS-Me,4-F)]N[dNMeA]G[Bip(4'-COOH)]KL[dA][hTyr])
SMILES: CC(C)C[C@@H]1NC(=O)[C@H](CCCCN)NC(=O)[C@H](Cc2ccc(-c3ccc(C(=O)O)cc3)cc2)NC(=O)CNC(=O)[C@@H](C)N(C)C(=O)[C@H](CC(N)=O)NC(=O)[C@H]([C@@H](C)c2c[nH]c3cccc(F)c23)NC(=O)[C@@H]2C[C@@H](N)CN2C(=O)CNC(=O)[C@H](Cc2ccc(C(=O)O)cc2)NC(=O)[C@H](Cc2c[nH]c3ccccc23)NC(=O)[C@H](Cc2ccc(-c3ccc(C(=O)O)cc3)cc2)NC(=O)[C@H](CCc2ccc(O)cc2)NC(=O)[C@@H](C)NC1=O
B11: SEQ ID NO: 76 (peptide)
peptide: cyclo([Bip(4'-COOH)]W[Phe(4-COOH)]G[Pro(trans-4-NH2)][Trp(βS-Me,4-F)]D[dNMeA]G[Bip(4'-COOH)][Phe(3-allyloxy)]L[dA][hTyr])
SMILES: C=CCOc1cccc(C[C@@H]2NC(=O)[C@H](Cc3ccc(-c4ccc(C(=O)O)cc4)cc3)NC(=O)CNC(=O)[C@@H](C)N(C)C(=O)[C@H](CC(=O)O)NC(=O)[C@H]([C@@H](C)c3c[nH]c4cccc(F)c34)NC(=O)[C@@H]3C[C@@H](N)CN3C(=O)CNC(=O)[C@H](Cc3ccc(C(=O)O)cc3)NC(=O)[C@H](Cc3c[nH]c4ccccc34)NC(=O)[C@H](Cc3ccc(-c4ccc(C(=O)O)cc4)cc3)NC(=O)[C@H](CCc3ccc(O)cc3)NC(=O)[C@@H](C)NC(=O)[C@H](CC(C)C)NC2=O)c1
B12: SEQ ID NO: 73 (peptide)
peptide: cyclo([Bip(4'-COOH)]W[Phe(4-COOH)]G[Pro(trans-4-NH2)][Trp(βS-Me,4-F)]D[dNMeA]G[Bip(4'-COOH)][Phe(3-CH2NH2)]L[dA][hTyr])
SMILES: CC(C)C[C@@H]1NC(=O)[C@H](Cc2cccc(CN)c2)NC(=O)[C@H](Cc2ccc(-c3ccc(C(=O)O)cc3)cc2)NC(=O)CNC(=O)[C@@H](C)N(C)C(=O)[C@H](CC(=O)O)NC(=O)[C@H]([C@@H](C)c2c[nH]c3cccc(F)c23)NC(=O)[C@@H]2C[C@@H](N)CN2C(=O)CNC(=O)[C@H](Cc2ccc(C(=O)O)cc2)NC(=O)[C@H](Cc2c[nH]c3ccccc23)NC(=O)[C@H](Cc2ccc(-c3ccc(C(=O)O)cc3)cc2)NC(=O)[C@H](CCc2ccc(O)cc2)NC(=O)[C@@H](C)NC1=O

These binders were tested against Recombinant human IL-1β (BioLegend 579404) (human, UniProt P01584 117-269) (assay: cell-based or functional assay).

MRC5 IC50 [nM]	Binder
0.0157	B1
0.0258	B2
0.0601	B3
0.14	B4
0.296	B5
0.0732	B6
0.255	B7
0.165	cyclo([Bip(4'-COOH)]W[Phe(4-COOH)]G[Pro(trans-4-NH2)][Trp(βS-Me,4-F)]D[dNMeA]G[Bip(4'-COOH)][mBip]L[dA][hTyr]) [SEQ ID NO: 75]
0.0329	B8
0.189	B9
0.291	B10
0.122	B11
0.0509	B12
